Results as given in publication PMC9352680, “A comprehensive thermodynamic model for RNA binding by the Saccharomyces cerevisiae Pumilio protein PUF4”.

T1: PUF4 RNA-binding domain (Saccharomyces cerevisiae, UniProt P25339 537-888)
T1 sequence: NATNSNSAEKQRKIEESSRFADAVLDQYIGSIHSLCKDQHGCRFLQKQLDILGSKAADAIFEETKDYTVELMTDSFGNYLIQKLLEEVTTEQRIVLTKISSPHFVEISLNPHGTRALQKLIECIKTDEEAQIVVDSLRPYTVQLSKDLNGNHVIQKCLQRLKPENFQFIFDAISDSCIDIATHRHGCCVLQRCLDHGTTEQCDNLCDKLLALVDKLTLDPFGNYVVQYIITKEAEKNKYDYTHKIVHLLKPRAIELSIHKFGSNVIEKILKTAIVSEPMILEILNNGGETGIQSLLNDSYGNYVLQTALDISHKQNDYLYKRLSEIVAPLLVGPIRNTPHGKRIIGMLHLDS


Target: T1, PUF4 RNA-binding domain
Assay: Mg; RNA-MaP; 20 mM Na-HEPES pH 7.4, 30 mM KOAc, 0.75 mM MgCl2, 0.1% Tween-20, 5% glycerol, 0.1 mg/mL BSA, 2 mM DTT; 25 C; 0.0125-409.6 nM protein
Settings: tags: N-His6-TEV cleaved; C-SNAP kept, Cy3B-labelled; label: tethered on chip by stalled RNA polymerase

Binder	Kd
ACAAACACUACACUAUAUAACAAAC (ssRNA) [Id_iii_S3_P3E.7_K3.3_C3.3_[T-3A]_H3.3_A3.1_F3.1_T3.2]	760 nM
UCUCUUUGUACAAUUAUCUCUU (ssRNA) [Ic_S1_P5E.1_K5.1_C5.1_H5.1_A5.1_[T5C]_[T6A]_F5.1_T5.1]	5.07 nM
UCUCUUUGUACGAUUAUCUCUU (ssRNA) [Ib_S1_P5E.1_K5.1_C5.1_H5.1_A5.1_[T5C]_[T6G]_F5.1_T5.1]	9.71 nM
UCUCUUUGUAAAAUUAUCUCUU (ssRNA) [Ib_S1_P5E.1_K5.1_C5.1_H5.1_A5.1_[T5A]_[T6A]_F5.1_T5.1]	10.6 nM
ACAAACUUUUAUAUAUAUAACAAAC (ssRNA) [Id_iii_S3_P3E.6_K3.2_C3.3_[C-2T]_H3.2_A3.1_F3.1_T3.2]	598 nM
ACAAACUAUACACUAUAUAACAAAC (ssRNA) [Id_iii_S3_P3E.7_K3.3_C3.3_[C-2A]_H3.3_A3.1_F3.1_T3.2]	32.5 nM
ACAAACCCUUAUAUAUAUAACAAAC (ssRNA) [Id_iii_S3_P3E.6_K3.2_C3.3_[T-3C]_H3.2_A3.1_F3.1_T3.2]	446 nM
ACAAACUCUUAUAUAUACAACAAAC (ssRNA) [Id_iii_S3_P3E.6_K3.2_C3.3_H3.2_A3.1_F3.1_T3.2_[T9C]]	693 nM
Ic_S2_P3E.1_K3.1_C3.1_H3.1_A3.1_F3.1_[A8G]_T3.1 (ssRNA) RNA: UUUGAUUAAUAUGAUAUCGUUCUUUCUUGUAUAUGUUCUUUCUCGAUAUCAUAUUAAUCUUU	11.7 nM
UCUCUUGGUAUAUAUCUCUU (ssRNA) [Ia_S1_P3E.1_K3.1_C3.1_H3.1_[T1G]_A3.1_F3.1_T3.1]	2290 nM
Id_iii_S2_P4E.8_K4.4_C4.3_[T-1A]_H4.1_A4.2_F4.1_T4.2 (ssRNA) RNA: UUUGAUUAAUAUGAUAUCGUUCUUUCUUCAUGUAUUUUAGUUUCUUUCUCGAUAUCAUAUUAAUCUUU	1.28 nM
Id_iii_S2_P4E.8_K4.4_C4.3_H4.1_A4.2_F4.1_T4.2_[T11C] (ssRNA) RNA: UUUGAUUAAUAUGAUAUCGUUCUUUCUUCUUGUAUUUUAGCUUCUUUCUCGAUAUCAUAUUAAUCUUU	1.42 nM
Id_iii_S2_P4E.9_K4.5_C4.3_[T-1A]_H4.1_A4.2_F4.2_T4.2 (ssRNA) RNA: UUUGAUUAAUAUGAUAUCGUUCUUUCUUCAUGUAUUUAAGUUUCUUUCUCGAUAUCAUAUUAAUCUUU	554 nM
Id_iii_S2_P4E.9_K4.5_C4.3_[T-1G]_H4.1_A4.2_F4.2_T4.2 (ssRNA) RNA: UUUGAUUAAUAUGAUAUCGUUCUUUCUUCGUGUAUUUAAGUUUCUUUCUCGAUAUCAUAUUAAUCUUU	502 nM
Id_iii_S2_P4E.8_K4.4_C4.3_H4.1_A4.2_F4.1_T4.2_[G10T] (ssRNA) RNA: UUUGAUUAAUAUGAUAUCGUUCUUUCUUCUUGUAUUUUAUUUUCUUUCUCGAUAUCAUAUUAAUCUUU	0.967 nM
Id_iii_S2_P4E.9_K4.5_C4.3_H4.1_A4.2_F4.2_T4.2_[G10C] (ssRNA) RNA: UUUGAUUAAUAUGAUAUCGUUCUUUCUUCUUGUAUUUAACUUUCUUUCUCGAUAUCAUAUUAAUCUUU	77.5 nM
Id_iii_S2_P4E.8_K4.4_C4.3_H4.1_A4.2_F4.1_T4.2_[G10C] (ssRNA) RNA: UUUGAUUAAUAUGAUAUCGUUCUUUCUUCUUGUAUUUUACUUUCUUUCUCGAUAUCAUAUUAAUCUUU	2.77 nM
ACAAACUCCUAUAUAUAUAACAAAC (ssRNA) [Id_iii_S3_P3E.6_K3.2_C3.3_[T-1C]_H3.2_A3.1_F3.1_T3.2]	218 nM
Id_iii_S2_P5E.5_K5.1_C5.3_H5.1_A5.1_F5.1_T5.2_[T11A] (ssRNA) RNA: UUUGAUUAAUAUGAUAUCGUUCUUUCUUCUUGUAUUAUUAAAUUCUUUCUCGAUAUCAUAUUAAUCUUU	3.88 nM
Id_iii_S2_P5E.7_K5.3_C5.3_H5.3_A5.1_F5.1_T5.2_[A12C] (ssRNA) RNA: UUUGAUUAAUAUGAUAUCGUUCUUUCUUCUACACUUAUUAUCUUCUUUCUCGAUAUCAUAUUAAUCUUU	> 2300 nM
Id_iii_S2_P5E.7_K5.3_C5.3_H5.3_A5.1_F5.1_T5.2_[A12T] (ssRNA) RNA: UUUGAUUAAUAUGAUAUCGUUCUUUCUUCUACACUUAUUAUUUUCUUUCUCGAUAUCAUAUUAAUCUUU	2160 nM
Id_iii_S2_P5E.8_K5.4_C5.3_H5.1_A5.2_F5.1_T5.2_[A12C] (ssRNA) RNA: UUUGAUUAAUAUGAUAUCGUUCUUUCUUCUUGUAAUAUUAUCUUCUUUCUCGAUAUCAUAUUAAUCUUU	3.6 nM

Binder	Kd
Id_iii_S2_P5E.7_K5.3_C5.3_H5.3_A5.1_F5.1_T5.2_[T11C] (ssRNA) RNA: UUUGAUUAAUAUGAUAUCGUUCUUUCUUCUACACUUAUUACAUUCUUUCUCGAUAUCAUAUUAAUCUUU	1770 nM
Id_iii_S2_P5E.9_K5.5_C5.3_H5.1_A5.2_F5.2_T5.2_[A12T] (ssRNA) RNA: UUUGAUUAAUAUGAUAUCGUUCUUUCUUCUUGUAAUAAAAUUUUCUUUCUCGAUAUCAUAUUAAUCUUU	158 nM
Id_iii_S2_P5E.7_K5.3_C5.3_[C-2G]_H5.3_A5.1_F5.1_T5.2 (ssRNA) RNA: UUUGAUUAAUAUGAUAUCGUUCUUUCUUGUACACUUAUUAUAUUCUUUCUCGAUAUCAUAUUAAUCUUU	2.01 nM
Id_iii_S2_P5E.9_K5.5_C5.3_H5.1_A5.2_F5.2_T5.2_[A12G] (ssRNA) RNA: UUUGAUUAAUAUGAUAUCGUUCUUUCUUCUUGUAAUAAAAUGUUCUUUCUCGAUAUCAUAUUAAUCUUU	189 nM
Id_iii_S2_P5E.8_K5.4_C5.3_[C-2T]_H5.1_A5.2_F5.1_T5.2 (ssRNA) RNA: UUUGAUUAAUAUGAUAUCGUUCUUUCUUUUUGUAAUAUUAUAUUCUUUCUCGAUAUCAUAUUAAUCUUU	8.91 nM
Id_iii_S2_P5E.5_K5.1_C5.3_H5.1_A5.1_F5.1_T5.2_[A12C] (ssRNA) RNA: UUUGAUUAAUAUGAUAUCGUUCUUUCUUCUUGUAUUAUUAUCUUCUUUCUCGAUAUCAUAUUAAUCUUU	1.64 nM
Id_iii_S2_P5E.7_K5.3_C5.3_[T-1A]_H5.3_A5.1_F5.1_T5.2 (ssRNA) RNA: UUUGAUUAAUAUGAUAUCGUUCUUUCUUCAACACUUAUUAUAUUCUUUCUCGAUAUCAUAUUAAUCUUU	823 nM
Id_iii_S2_P5E.8_K5.4_C5.3_H5.1_A5.2_F5.1_T5.2_[A12T] (ssRNA) RNA: UUUGAUUAAUAUGAUAUCGUUCUUUCUUCUUGUAAUAUUAUUUUCUUUCUCGAUAUCAUAUUAAUCUUU	2.65 nM
Id_iii_S2_P5E.6_K5.2_C5.3_H5.2_A5.1_F5.1_T5.2_[A12T] (ssRNA) RNA: UUUGAUUAAUAUGAUAUCGUUCUUUCUUCUUAUAUUAUUAUUUUCUUUCUCGAUAUCAUAUUAAUCUUU	42.1 nM
Id_iii_S2_P5E.7_K5.3_C5.3_[T-3A]_H5.3_A5.1_F5.1_T5.2 (ssRNA) RNA: UUUGAUUAAUAUGAUAUCGUUCUUUCUACUACACUUAUUAUAUUCUUUCUCGAUAUCAUAUUAAUCUUU	709 nM
Id_iii_S2_P5E.8_K5.4_C5.3_[C-2G]_H5.1_A5.2_F5.1_T5.2 (ssRNA) RNA: UUUGAUUAAUAUGAUAUCGUUCUUUCUUGUUGUAAUAUUAUAUUCUUUCUCGAUAUCAUAUUAAUCUUU	15.4 nM
Id_iii_S2_P5E.5_K5.1_C5.3_H5.1_A5.1_F5.1_T5.2_[A12G] (ssRNA) RNA: UUUGAUUAAUAUGAUAUCGUUCUUUCUUCUUGUAUUAUUAUGUUCUUUCUCGAUAUCAUAUUAAUCUUU	2.58 nM
Id_iii_S2_P5E.5_K5.1_C5.3_H5.1_A5.1_F5.1_T5.2_[A12T] (ssRNA) RNA: UUUGAUUAAUAUGAUAUCGUUCUUUCUUCUUGUAUUAUUAUUUUCUUUCUCGAUAUCAUAUUAAUCUUU	1.59 nM
Id_iii_S2_P5E.7_K5.3_C5.3_[T-1C]_H5.3_A5.1_F5.1_T5.2 (ssRNA) RNA: UUUGAUUAAUAUGAUAUCGUUCUUUCUUCCACACUUAUUAUAUUCUUUCUCGAUAUCAUAUUAAUCUUU	838 nM
Id_iii_S2_P5E.8_K5.4_C5.3_[C-2A]_H5.1_A5.2_F5.1_T5.2 (ssRNA) RNA: UUUGAUUAAUAUGAUAUCGUUCUUUCUUAUUGUAAUAUUAUAUUCUUUCUCGAUAUCAUAUUAAUCUUU	40.3 nM
Id_iii_S2_P5E.9_K5.5_C5.3_H5.1_A5.2_F5.2_T5.2_[A12C] (ssRNA) RNA: UUUGAUUAAUAUGAUAUCGUUCUUUCUUCUUGUAAUAAAAUCUUCUUUCUCGAUAUCAUAUUAAUCUUU	146 nM
Id_iii_S2_P5E.8_K5.4_C5.3_[T-3C]_H5.1_A5.2_F5.1_T5.2 (ssRNA) RNA: UUUGAUUAAUAUGAUAUCGUUCUUUCUCCUUGUAAUAUUAUAUUCUUUCUCGAUAUCAUAUUAAUCUUU	5.82 nM
Id_iii_S2_P5E.8_K5.4_C5.3_[T-3A]_H5.1_A5.2_F5.1_T5.2 (ssRNA) RNA: UUUGAUUAAUAUGAUAUCGUUCUUUCUACUUGUAAUAUUAUAUUCUUUCUCGAUAUCAUAUUAAUCUUU	8.09 nM
Id_iii_S2_P5E.7_K5.3_C5.3_[C-2A]_H5.3_A5.1_F5.1_T5.2 (ssRNA) RNA: UUUGAUUAAUAUGAUAUCGUUCUUUCUUAUACACUUAUUAUAUUCUUUCUCGAUAUCAUAUUAAUCUUU	579 nM
Id_iii_S2_P5E.8_K5.4_C5.3_H5.1_A5.2_F5.1_T5.2_[A12G] (ssRNA) RNA: UUUGAUUAAUAUGAUAUCGUUCUUUCUUCUUGUAAUAUUAUGUUCUUUCUCGAUAUCAUAUUAAUCUUU	6.61 nM
Id_iii_S2_P5E.7_K5.3_C5.3_[T-1G]_H5.3_A5.1_F5.1_T5.2 (ssRNA) RNA: UUUGAUUAAUAUGAUAUCGUUCUUUCUUCGACACUUAUUAUAUUCUUUCUCGAUAUCAUAUUAAUCUUU	963 nM
UCUCUUUGUAACAUUAUCUCUU (ssRNA) [Ib_S1_P5E.1_K5.1_C5.1_H5.1_A5.1_[T5A]_[T6C]_F5.1_T5.1]	4.31 nM
